Publication PMC9245421, “The VvWRKY37 Regulates Bud Break in Grape Vine Through ABA-Mediated Signaling Pathways”
Positions count from the first letter of the chain named.

T1: VvABF2-HIS (grape vine, UniProt F6H1D1 1-447)
T1 sequence: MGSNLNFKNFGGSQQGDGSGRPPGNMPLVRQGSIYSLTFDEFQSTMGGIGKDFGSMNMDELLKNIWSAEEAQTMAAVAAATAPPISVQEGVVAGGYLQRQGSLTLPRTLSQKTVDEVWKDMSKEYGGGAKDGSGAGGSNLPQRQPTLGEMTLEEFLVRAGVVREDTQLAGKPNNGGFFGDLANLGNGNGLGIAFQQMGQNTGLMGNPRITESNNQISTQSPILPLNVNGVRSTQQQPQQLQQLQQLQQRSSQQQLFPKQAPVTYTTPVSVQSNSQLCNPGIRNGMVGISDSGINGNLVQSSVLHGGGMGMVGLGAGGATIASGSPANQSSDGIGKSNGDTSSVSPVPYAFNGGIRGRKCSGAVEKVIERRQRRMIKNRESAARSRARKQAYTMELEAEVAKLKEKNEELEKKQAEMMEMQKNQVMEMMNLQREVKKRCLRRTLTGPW

T2: VvABI5-HIS (grape vine, UniProt F6HQA3 1-409)
T2 sequence: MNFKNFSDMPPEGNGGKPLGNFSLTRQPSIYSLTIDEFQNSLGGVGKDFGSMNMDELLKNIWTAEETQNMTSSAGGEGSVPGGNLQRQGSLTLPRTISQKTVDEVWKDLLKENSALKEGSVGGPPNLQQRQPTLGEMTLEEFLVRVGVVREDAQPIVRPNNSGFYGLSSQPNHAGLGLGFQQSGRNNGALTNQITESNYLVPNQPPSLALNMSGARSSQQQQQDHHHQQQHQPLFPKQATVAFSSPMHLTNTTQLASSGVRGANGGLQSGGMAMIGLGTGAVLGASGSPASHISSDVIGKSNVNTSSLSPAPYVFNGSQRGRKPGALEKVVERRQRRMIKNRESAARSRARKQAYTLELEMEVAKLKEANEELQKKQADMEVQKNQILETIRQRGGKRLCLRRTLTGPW

B1: W37-P1 (dsDNA)
DNA 1: CTCTCTCCCACGTGCCGACCTCACACGTGTTAGCCTCAT
DNA 2: ATGAGGCTAACACGTGTGAGGTCGGCACGTGGGAGAGAG
B2: W37-P2 (dsDNA)
DNA 1: TCCAAATGCTTTCACGTAATTTCATTTGTT
DNA 2: AACAAATGAAATTACGTGAAAGCATTTGGA
B3: W37-mP2 (dsDNA)
DNA 1: B2 DNA 1 with C13A, G16A, A18G
DNA 2: B2 DNA 2 with T13C, C15T, G18T

Experiments:
VvABF2-HIS [1] = target: T1, VvABF2-HIS; experiment: EMSA; EMSA: 2 ul of 5x buffer (50% glycerol, 50 mM MgCl2, 5 mM EDTA, 10 mM DTT, 500 mM KCl, 250 mM HEPES pH 7.4) in 10 ul, i.e. 1x = 10% glycerol, 10 mM MgCl2, 1 mM EDTA, 2 mM DTT, 100 mM KCl, 50 mM HEPES; 1 ul of 0.05 uM biotin probe; 24 C, 20 min; 6% native gel, 0.5x TBE; conditions: protein: recombinant; tags: His (pET32a); label: biotin; blunt
VvABI5-HIS [2] = target: T2, VvABI5-HIS; experiment: as above; conditions: protein: recombinant; tags: His (pET32a); label: biotin; blunt
VvABF2-HIS [3] = target: T1, VvABF2-HIS; experiment: competition; 100-fold unlabeled vs W37-P2; EMSA: 2 ul of 5x buffer (50% glycerol, 50 mM MgCl2, 5 mM EDTA, 10 mM DTT, 500 mM KCl, 250 mM HEPES pH 7.4) in 10 ul, i.e. 1x = 10% glycerol, 10 mM MgCl2, 1 mM EDTA, 2 mM DTT, 100 mM KCl, 50 mM HEPES; 1 ul of 0.05 uM biotin probe; 24 C, 20 min; 6% native gel, 0.5x TBE; conditions: protein: recombinant; tags: His (pET32a); blunt
VvABI5-HIS [4] = target: T2, VvABI5-HIS; experiment: as above; conditions: protein: recombinant; tags: His (pET32a); blunt

Binder	binding result (VvABF2-HIS [1])	binding result (VvABI5-HIS [2])	binding result (VvABF2-HIS [3])	binding result (VvABI5-HIS [4])
B1	no binding	no binding	–	–
B2	binds	binds	–	–
B3	–	–	no binding	no binding
